Results on two proteins are retold here after paper PMC7568338 (Proceedings of the National Academy of Sciences of the …, 2020).

The series deals with the molecule itself. The series is described as follows: SEC.

B1: ^D645CClpA (enzyme, E. coli, UniProt P0ABH9 1-749, looked up)
chain: MLNQELELSLNMAFARAREHRHEFMTVEHLLLALLSNPSAREALEASSVDLVALRQELEAFIEQTTPVLPASEEERDTQPTLSFQRVLQRAVFHVQSSGRNEVTGANVLVAIFSEQESQAAYLLRKHEVSRLDVVNFISHGTRKDEPTQSSDPGSQPNSEEQAGGEERMENFTTNLNQLARVGGIDPLIGREKELERAIQVLSRRRKNNPLLVGESGVGKTAIAEGLAWRIVQGDVPEVMADSTIYSLDIGSLLAGTKYRGDFEKRFKALLKQLEQDTNSILFIDEIHTIIGAGAASGGQVDAANLIKPLLSSGKIRVIGSTTYQEFSNIFEKDRALARRFQKIDITEPSIEETVQIINGLKPKYEAHHDVRYTAKAVRAAVELAVKYINDRHLPDKAIDVIDEAGARARLMPVSKRKKTVNVADIESVVARIARIPEKSVSQSDRDTLKNLGDRLKMLVFGQDKAIEALTEAIKMARAGLGHEHKPVGSFLFAGPTGVGKTEVTVQLSKALGIELLRFDMSEYMERHTVSRLIGAPPGYVGFDQGGLLTDAVIKHPHAVLLLDEIEKAHPDVFNILLQVMDNGTLTDNNGRKADFRNVVLVMTTNAGVRETERKSIGLIHQDNSTDAMEEIKKIFTPEFRNRLCNIIWFDHLSTDVIHQVVDKFIVELQVQLDQKGVSLEVSQEARNWLAEKGYDRAMGARPMARVIQDNLKKPLANELLFGSLVDGGQVTVALDKEKNELTYGFQSA
Regarding B1, the binding result was “binds”.

B2: ^Q709CClpA (enzyme, E. coli, UniProt P0ABH9 1-749, looked up)
chain: MLNQELELSLNMAFARAREHRHEFMTVEHLLLALLSNPSAREALEASSVDLVALRQELEAFIEQTTPVLPASEEERDTQPTLSFQRVLQRAVFHVQSSGRNEVTGANVLVAIFSEQESQAAYLLRKHEVSRLDVVNFISHGTRKDEPTQSSDPGSQPNSEEQAGGEERMENFTTNLNQLARVGGIDPLIGREKELERAIQVLSRRRKNNPLLVGESGVGKTAIAEGLAWRIVQGDVPEVMADSTIYSLDIGSLLAGTKYRGDFEKRFKALLKQLEQDTNSILFIDEIHTIIGAGAASGGQVDAANLIKPLLSSGKIRVIGSTTYQEFSNIFEKDRALARRFQKIDITEPSIEETVQIINGLKPKYEAHHDVRYTAKAVRAAVELAVKYINDRHLPDKAIDVIDEAGARARLMPVSKRKKTVNVADIESVVARIARIPEKSVSQSDRDTLKNLGDRLKMLVFGQDKAIEALTEAIKMARAGLGHEHKPVGSFLFAGPTGVGKTEVTVQLSKALGIELLRFDMSEYMERHTVSRLIGAPPGYVGFDQGGLLTDAVIKHPHAVLLLDEIEKAHPDVFNILLQVMDNGTLTDNNGRKADFRNVVLVMTTNAGVRETERKSIGLIHQDNSTDAMEEIKKIFTPEFRNRLDNIIWFDHLSTDVIHQVVDKFIVELQVQLDQKGVSLEVSQEARNWLAEKGYDRAMGARPMARVICDNLKKPLANELLFGSLVDGGQVTVALDKEKNELTYGFQSA
With B2, the binding result is “binds”.
